Laboratory results reported in patent US20240239891A1 (Stanford University, published 2024).

Assays:
[1] = target: T1, extracellular domain (ECD) of human GOLIATH (RNF130) (human, UniProt Q86XS8 28-194); experiment: SPR (Biacore), titration at equilibrium, nanobody on ECD
T1 construct: extracellular domain; also called GOLIATH ECD
T1 sequence (looked up): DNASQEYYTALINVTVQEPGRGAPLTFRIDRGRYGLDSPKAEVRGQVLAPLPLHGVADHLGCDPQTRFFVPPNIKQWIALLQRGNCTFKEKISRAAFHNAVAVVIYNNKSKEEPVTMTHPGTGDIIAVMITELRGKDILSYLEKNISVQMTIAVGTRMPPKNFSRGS

[2] = target: T2, extracellular domain (ECD) of human GODZILLA (RNF167) (human, UniProt Q9H6Y7 25-173, limits assumed); experiment: SPR (Biacore), ligand hRNF167 ECD (GODZILLA), analyte GOLIATH-F8 [CONT. 3]
T2 construct: extracellular domain; also called GODZILLA ECD

[3] = target: T3, extracellular domain (ECD) of human GRAIL (RNF128) (human, UniProt Q8TEB7 39-207, limits assumed); experiment: SPR (Biacore), titrations at equilibrium, Biacore Analysis Software; column ECD GRAIL (hRNF128)
T3 construct: extracellular domain; also called GRAIL ECD
T3 sequence (looked up): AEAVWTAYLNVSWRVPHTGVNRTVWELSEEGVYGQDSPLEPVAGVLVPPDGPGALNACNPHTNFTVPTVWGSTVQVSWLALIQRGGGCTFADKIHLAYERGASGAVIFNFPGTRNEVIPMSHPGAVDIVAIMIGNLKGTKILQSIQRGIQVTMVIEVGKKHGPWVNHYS

[4] = target: T2, extracellular domain (ECD) of human …; experiment: SPR (Biacore), titrations at equilibrium, Biacore Analysis Software; row GOLIATH-D1, column GODZILLA (hRNF167)
[5] = target: T3, extracellular domain (ECD) of human …; experiment: SPR (Biacore), ligand hRNF128 ECD (GRAIL), analyte GOLIATH-F2 [CONT. 2]
[6] = target: T2, extracellular domain (ECD) of human …; experiment: SPR (Biacore), ligand hRNF167 ECD (GODZILLA), analyte GOLIATH-F2 [CONT. 2]
[7] = target: T3, extracellular domain (ECD) of human …; experiment: SPR (Biacore), titrations at equilibrium, Biacore Analysis Software; row GOLIATH-A1, column GRAIL (hRNF128)
[8] = target: T2, extracellular domain (ECD) of human …; experiment: SPR (Biacore), titrations at equilibrium, Biacore Analysis Software; row GOLIATH-A1, column GODZILLA (hRNF167)
[9] = target: T4, extracellular domain (ECD) of human or mouse ZNRF3 (human or mouse); experiment: SPR (Biacore), nanobody on ECD
T4 construct: extracellular domain; also called ZNRF3 ECD

[10] = target: T5, hZNRF3 ECD; experiment: SPR (Biacore), ligand hZNRF3 ECD, nanobody as analyte
T5 construct: The human half of m19, which leaves the species open; also called extracellular domain of human ZNRF3
T5 chain: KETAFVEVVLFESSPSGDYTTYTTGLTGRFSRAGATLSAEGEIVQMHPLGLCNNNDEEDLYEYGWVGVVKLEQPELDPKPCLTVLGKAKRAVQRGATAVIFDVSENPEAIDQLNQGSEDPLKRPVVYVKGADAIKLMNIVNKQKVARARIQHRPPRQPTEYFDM

[11] = target: T6, mZNRF3 ECD; experiment: SPR (Biacore), ligand mZNRF3 ECD, nanobody as analyte
T6 construct: The mouse half of m19, which leaves the species open; also called extracellular domain of mouse ZNRF3
T6 chain: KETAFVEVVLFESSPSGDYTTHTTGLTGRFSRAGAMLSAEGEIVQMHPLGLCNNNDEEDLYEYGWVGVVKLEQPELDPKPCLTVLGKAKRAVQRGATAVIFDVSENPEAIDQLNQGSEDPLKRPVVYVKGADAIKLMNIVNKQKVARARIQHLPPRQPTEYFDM

[12] = target: T7, extracellular domain (ECD) of human or mouse RNF43 (human or mouse); experiment: SPR (Biacore), nanobody on ECD
T7 construct: extracellular domain; also called RNF43 ECD

[13] = target: T8, hRNF43 ECD; experiment: SPR (Biacore), ligand hRNF43 ECD, nanobody as analyte
T8 construct: The human half of m18, which leaves the species open; also called extracellular domain of human RNF43
T8 chain: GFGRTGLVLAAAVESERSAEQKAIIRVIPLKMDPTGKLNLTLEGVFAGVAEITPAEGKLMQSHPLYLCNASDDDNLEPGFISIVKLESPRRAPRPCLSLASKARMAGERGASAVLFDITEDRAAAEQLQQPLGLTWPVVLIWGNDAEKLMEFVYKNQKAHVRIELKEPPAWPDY

[14] = target: T9, mRNF43 ECD; experiment: SPR (Biacore), ligand mRNF43 ECD, nanobody as analyte
T9 construct: The mouse half of m18, which leaves the species open; also called extracellular domain of mouse RNF43
T9 chain: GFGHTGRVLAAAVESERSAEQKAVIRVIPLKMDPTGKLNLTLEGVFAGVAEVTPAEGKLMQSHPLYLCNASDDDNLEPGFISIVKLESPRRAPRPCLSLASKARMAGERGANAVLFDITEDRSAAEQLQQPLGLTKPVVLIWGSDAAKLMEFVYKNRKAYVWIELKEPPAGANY

[15] = target: T3, extracellular domain (ECD) of human …; experiment: SPR (Biacore), titration at equilibrium, nanobody on ECD
[16] = target: T1, extracellular domain (ECD) of human …; experiment: SPR (Biacore), titrations at equilibrium, Biacore Analysis Software; row GRAIL-E1, column GOLIATH (hRNF130)
[17] = target: T2, extracellular domain (ECD) of human …; experiment: SPR (Biacore), titrations at equilibrium, Biacore Analysis Software; row GRAIL-E1, column GODZILLA (hRNF167)
[18] = target: T1, extracellular domain (ECD) of human …; experiment: SPR (Biacore), titrations at equilibrium, Biacore Analysis Software; row GRAIL-E2, column GOLIATH (hRNF130)
[19] = target: T2, extracellular domain (ECD) of human …; experiment: SPR (Biacore), titrations at equilibrium, Biacore Analysis Software; row GRAIL-E2, column GODZILLA (hRNF167)
[20] = target: T1, extracellular domain (ECD) of human …; experiment: SPR (Biacore), ligand hRNF130 ECD (GOLIATH), analyte GRAIL-D1
[21] = target: T2, extracellular domain (ECD) of human …; experiment: SPR (Biacore), titrations at equilibrium, Biacore Analysis Software; row GRAIL-D1, column GODZILLA (hRNF167)

B1: GOLIATH (RNF130) VHH of SEQ ID NO: 8 (VHH)
VHH: QVQLQESGGGLVQAGGSLRLSCAASGTISFIGYMGWYRQAPGKERELVASIASGTSTYYADSVKGRFTISRDNAKNTVYLQMNSLKPEDTAVYYCAATQYIQDAHRYWGQGTQVTVSS
notes: also called GOLIATH nanobody
Kd [1]: 130 nM | binding result [2]: no binding (tested: 2000 (unit not printed)) | Kd [3]: 70.2 nM

B2: GOLIATH (RNF130) VHH of SEQ ID NO: 6 (VHH)
VHH: QVQLQESGGGLVQAGGSLRLSCAASGTISFIGYMGWYRQAPGKERELVASIASGTSTYYADSVKGRFTISRDNAKNTVYLQMNSLKPEDTAVYYCAATQYIQDVHRYWGQGTQVTVSS
notes: also called D1; GOLIATH-D1
Kd [1]: 6.38 nM | binding result [4]: no binding

B3: GOLIATH (RNF130) VHH of SEQ ID NO: 7 (VHH)
VHH: QVQLQESGGGLVQAGGSLRLSCAASGTISVIGYMGWYRQAPGKERELVASIASGTSTYYADSVKGRFTISRDNAKNTVYLQMNSLKPEDTAVYYCAATHYIQDAHRYWGQGTQVTVSS
notes: also called GOLIATH nanobody
binding result [5]: no binding (tested: 4000 (unit not printed)) | binding result [6]: no binding (tested: 4000 (unit not printed))

B4: GOLIATH (RNF130) VHH of SEQ ID NO: 5 (VHH)
VHH: QVQLQESGGGLVQAGGSLRLSCAASGYISGYYVMGWYRQAPGKEREFVASISYGASTYYADSVKGRFTISRDNAKNTVYLQMNSLKPEDTAVYYCAVDFDSNYAHTYWGQGTQVTVSS
notes: also called A1; GOLIATH-A1
Kd [1]: 8.18 nM | binding result [7]: no binding | binding result [8]: no binding

B5: ZNRF3 VHH of SEQ ID NO: 14 (VHH)
VHH: QVQLQESGGGLVQAGGSLRLSCAASGTISYAHIMGWYRQAPGKERELVAGISQGSITNYADSVKGRFTISRDNAKNTVYLQMNSLKPEDTAVYYCAVISYDYIKSVPFRYWGQGTQVTVSS
notes: also called ZNRF3 nanobody
Kd [9]: 0.7 nM | binding result [10]: binds | binding result [11]: binds

B6: RNF43 VHH of SEQ ID NO: 11 (VHH)
VHH: QVQLQESGGGLVQAGGSLRLSCAASGTIFGLSDMGWYRQAPGKEREFVAAIAGGTITYYADSVKGRFTISRDNAKNTVYLQMNSLKPEDTAVYYCAAYKYDERYHSYWGQGTQVTVSS
notes: also called RNF43 nanobody
Kd [12]: 163 nM | binding result [13]: binds | binding result [14]: binds

B7: ZNRF3 VHH of SEQ ID NO: 13 (VHH)
VHH: QVQLQESGGGLVQAGGSLRLSCAASGTIFYTLFMGWYRQAPGKEREFVAGIGRGGITYYADSVKGRFTISRDNAKNTVYLQMNSLKPEDTAVYYCAVWYDFLHSDSQAYSYWGQGTQVTVSS
notes: also called ZNRF3 nanobody
Kd [9]: 18.1 nM

B8: GRAIL (RNF128) VHH of SEQ ID NO: 4 (VHH)
VHH: QVQLQESGGGLVQAGGSLRLSCAASGTISYYYAMGWYRQAPGKEREFVAAIDLGTSTYYADSVKGRFTISRDNAKNTVYLQMNSLKPEDTAVYYCAAWSDYVTELPYWGQGTQVTVSS
notes: also called GRAIL nanobody
Kd [15]: 148 nM

B9: GRAIL (RNF128) VHH of SEQ ID NO: 2 (VHH)
VHH: QVQLQESGGGLVQAGGSLRLSCAASGNISVQLDMGWYRQAPGKEREFVAAINQGTTTYYADSVKGRFTISRDNAKNTVYLQMNSLKPEDTAVYYCAVYLYDIWNHPYWGQGTQVTVSS
notes: also called E1; GRAIL-E1
Kd [15]: 7.92 nM | binding result [16]: no binding | binding result [17]: no binding

B10: RNF43 VHH of SEQ ID NO: 12 (VHH)
VHH: QVQLQESGGGLVQAGGSLRLSCAASGSIFWKPVMGWYRQAPGKEREFVAAITSGTNTYYADSVKGRFTISRDNAKNTVYLQMNSLKPEDTAVYYCAVDDYDVVEYPYWGQGTQVTVSS
notes: also called RNF43 nanobody
Kd [12]: 41.5 nM

B11: GRAIL (RNF128) VHH of SEQ ID NO: 3 (VHH)
VHH: QVQLQESGGGLVQAGGSLRLSCAASGSISGGKGMGWYRQAPGKEREFVAAIGSGAITYYADSVKGRFTISRDNAKNTVYLQMNSLKPEDTAVYYCAVYTTALDEYPYWGQGTQVTVSS
notes: also called E2; GRAIL-E2
Kd [15]: 13.5 nM | binding result [18]: no binding | binding result [19]: no binding

B12: GRAIL (RNF128) VHH of SEQ ID NO: 1 (VHH)
VHH: QVQLQESGGGLVQAGGSLRLSCAASGYIFYGVHMGWYRQAPGKEREFVAAIDLGTTTYYADSVKGRFTISRDNAKNTVYLQMNSLKPEDTAVYYCAVYFDGLTNLPYWGQGTQVTVSS
notes: Purified nanobody; also called GRAIL nanobody
Kd [15]: 8.99 nM | binding result [20]: no binding (tested: 500 (unit not printed)) | binding result [21]: no binding
